# Measured values taken from the supplement of paper PMC10065799, “High-throughput profiling of sequence recognition by tyrosine kinases and SH2 domains using bacterial peptide display” (eLife, 2023).
# Biological target: c-Src SH2
# Test: SH2 binding enrichment of the phosphorylated peptide, bacterial display (enrichment ratio); higher = better substrate or ligand; peptides without Tyr show the background
# 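For SH2 binding enrichment of the phosphorylated peptide, bacterial display in this document: peptide library displayed on the E. coli surface as eCPX fusions, selected cells deep-sequenced, score is each peptide's frequency after selection divided by its frequency in the input.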
# 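For phosphorylation enrichment, bacterial display in this document: 11-residue human phosphosite peptides and single-mutation variants displayed on the E. coli surface, counted by deep sequencing, each peptide's frequency after selection divided by its frequency in the unselected input library; frequency after pTyr selection over input frequency; kinase dosed for 20-30% of maximal phosphorylation in three min.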
row,Sequence,SH2 binding enrichment
1,APRKVYDTQDD [ZFPL1_Y215_R218Q],0.501
2,GCVRMYELVHR [GLE1_Y135],2.25
3,LSIQCYLRASD [HMGCS2_Y262_L266S],0.443
4,QPGTDYKIYLY [FN1_Y1970],0.466
5,DSNLIYSQIWS [FCRL3_Y662_P660L],0.538
6,AASTDYFKRGD [PDHA1_Y242_YF],0.416
7,KDFTKYVAYIE [KDM4B_Y31_N29T],0.608
8,TLQWMYGCDVG [HLA-B_Y123_S121W],0.446
9,SVVVPYKPPEV [TP53_Y220_E221K],0.546
10,CEAMEYQESKQ [BTK_Y511_L512Q],0.437
11,PFTRNYFVWAV [CYBA_Y87_R90W_YF],0.534
12,EFISEYCGEII [EZH2_Y641],0.617
13,EQAERYDDMAA [YWHAG_Y20],1.3
14,PSELFYSKISP [SMG1_Y2254_G2258S_YF],3.17
15,AGARMYGVLPW [PLP1_Y207_D203G],0.513
16,VVTGPYEKPSL [KIR3DS1_Y221_L220P],0.704
17,GDRPVYSEDEQ [CHST6_Y362_Y358D],0.82

row,Sequence,SH2 binding enrichment
1,SVVVPYEPSEV [TP53_Y220_P223S],0.506
2,IIWDSYTTNKV [GNB1_Y85],0.543
3,SSAKTYSRMRL [NBEAL2_Y1835_E1833K],0.773
4,LGPSDYFGETA [PRKAR1A_Y323_I327T],0.59
5,CTSIHYNYMCN [TP53_Y234_T231S],6.03
6,LAIERYVVVCK [RHO_Y136],0.476
7,NGVSYYINLCQ [IGF2R_Y2025],0.466
8,LWQTIYNLEAE [TNNT2_Y251_S249T],0.823
9,FPPTHYIRRMP [SLC4A11_Y820_V824M_YF],0.506
10,GYQPDYGQPAG [SYP_Y278],0.52
11,MCTVDYLLRLQ [RYR1_Y3921_I3916M],0.523
12,FGGLRYGFGVL [KRTAP20-2_Y13_YF],0.674
13,PGVDIYVSPNM [PADI3_Y51_I52V],0.524
14,CYVYYYSYLLK [PTEN_Y178_R173C],0.68
15,DLAAQYTTVGH [SGSH_Y240_R245H],3.24
16,KGSEGYLAATF [NF1_Y2503_YF],0.474

# Biological target: Grb2 SH2 (UniProt P62993)
# Test: as above
# Grb2 SH2, sequence (P62993 whole entry, looked up): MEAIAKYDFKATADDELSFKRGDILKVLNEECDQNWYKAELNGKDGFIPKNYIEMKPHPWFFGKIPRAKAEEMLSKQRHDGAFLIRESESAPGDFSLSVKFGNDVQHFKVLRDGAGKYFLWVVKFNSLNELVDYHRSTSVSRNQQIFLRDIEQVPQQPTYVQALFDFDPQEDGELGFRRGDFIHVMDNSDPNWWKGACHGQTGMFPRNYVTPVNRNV
row,Sequence,SH2 binding enrichment
1,APRKVYDTQDD [ZFPL1_Y215_R218Q],0.716
2,GCVRMYELVHR [GLE1_Y135],1.06
3,LSIQCYLRASD [HMGCS2_Y262_L266S],0.732
4,QPGTDYKIYLY [FN1_Y1970],0.741
5,DSNLIYSQIWS [FCRL3_Y662_P660L],0.754
6,AASTDYFKRGD [PDHA1_Y242_YF],0.879
7,KDFTKYVAYIE [KDM4B_Y31_N29T],0.966
8,TLQWMYGCDVG [HLA-B_Y123_S121W],0.772
9,SVVVPYKPPEV [TP53_Y220_E221K],0.795
10,CEAMEYQESKQ [BTK_Y511_L512Q],0.843
11,PFTRNYFVWAV [CYBA_Y87_R90W_YF],0.939
12,EFISEYCGEII [EZH2_Y641],0.947
13,EQAERYDDMAA [YWHAG_Y20],0.966
14,PSELFYSKISP [SMG1_Y2254_G2258S_YF],0.854
15,AGARMYGVLPW [PLP1_Y207_D203G],0.782
16,VVTGPYEKPSL [KIR3DS1_Y221_L220P],0.875
17,GDRPVYSEDEQ [CHST6_Y362_Y358D],0.992

row,Sequence,SH2 binding enrichment
1,SVVVPYEPSEV [TP53_Y220_P223S],0.837
2,IIWDSYTTNKV [GNB1_Y85],0.76
3,SSAKTYSRMRL [NBEAL2_Y1835_E1833K],0.869
4,LGPSDYFGETA [PRKAR1A_Y323_I327T],0.817
5,CTSIHYNYMCN [TP53_Y234_T231S],1.2
6,LAIERYVVVCK [RHO_Y136],0.674
7,NGVSYYINLCQ [IGF2R_Y2025],0.717
8,LWQTIYNLEAE [TNNT2_Y251_S249T],1.03
9,FPPTHYIRRMP [SLC4A11_Y820_V824M_YF],0.982
10,GYQPDYGQPAG [SYP_Y278],0.657
11,MCTVDYLLRLQ [RYR1_Y3921_I3916M],0.84
12,FGGLRYGFGVL [KRTAP20-2_Y13_YF],0.732
13,PGVDIYVSPNM [PADI3_Y51_I52V],0.804
14,CYVYYYSYLLK [PTEN_Y178_R173C],0.864
15,DLAAQYTTVGH [SGSH_Y240_R245H],0.843
16,KGSEGYLAATF [NF1_Y2503_YF],0.766

# Biological target: SHP2-C SH2
# Test: as above
row,Sequence,SH2 binding enrichment
1,APRKVYDTQDD [ZFPL1_Y215_R218Q],0.671
2,GCVRMYELVHR [GLE1_Y135],0.908
3,LSIQCYLRASD [HMGCS2_Y262_L266S],0.795
4,QPGTDYKIYLY [FN1_Y1970],0.753
5,DSNLIYSQIWS [FCRL3_Y662_P660L],0.951
6,AASTDYFKRGD [PDHA1_Y242_YF],0.68
7,KDFTKYVAYIE [KDM4B_Y31_N29T],2.42
8,TLQWMYGCDVG [HLA-B_Y123_S121W],0.657
9,SVVVPYKPPEV [TP53_Y220_E221K],0.599
10,CEAMEYQESKQ [BTK_Y511_L512Q],0.557
11,PFTRNYFVWAV [CYBA_Y87_R90W_YF],0.771
12,EFISEYCGEII [EZH2_Y641],0.809
13,EQAERYDDMAA [YWHAG_Y20],0.617
14,PSELFYSKISP [SMG1_Y2254_G2258S_YF],3.93
15,AGARMYGVLPW [PLP1_Y207_D203G],0.549
16,VVTGPYEKPSL [KIR3DS1_Y221_L220P],0.636
17,GDRPVYSEDEQ [CHST6_Y362_Y358D],0.639

row,Sequence,SH2 binding enrichment
1,SVVVPYEPSEV [TP53_Y220_P223S],0.645
2,IIWDSYTTNKV [GNB1_Y85],0.77
3,SSAKTYSRMRL [NBEAL2_Y1835_E1833K],0.802
4,LGPSDYFGETA [PRKAR1A_Y323_I327T],0.499
5,CTSIHYNYMCN [TP53_Y234_T231S],2.73
6,LAIERYVVVCK [RHO_Y136],0.679
7,NGVSYYINLCQ [IGF2R_Y2025],0.488
8,LWQTIYNLEAE [TNNT2_Y251_S249T],0.773
9,FPPTHYIRRMP [SLC4A11_Y820_V824M_YF],0.821
10,GYQPDYGQPAG [SYP_Y278],0.702
11,MCTVDYLLRLQ [RYR1_Y3921_I3916M],0.765
12,FGGLRYGFGVL [KRTAP20-2_Y13_YF],0.913
13,PGVDIYVSPNM [PADI3_Y51_I52V],0.555
14,CYVYYYSYLLK [PTEN_Y178_R173C],0.543
15,DLAAQYTTVGH [SGSH_Y240_R245H],1.41
16,KGSEGYLAATF [NF1_Y2503_YF],0.847

# Biological target: Fes (UniProt P07332)
# Test: phosphorylation enrichment, bacterial display (enrichment ratio); higher = better substrate or ligand; peptides without Tyr show the background
# Fes, sequence (P07332 whole entry, looked up): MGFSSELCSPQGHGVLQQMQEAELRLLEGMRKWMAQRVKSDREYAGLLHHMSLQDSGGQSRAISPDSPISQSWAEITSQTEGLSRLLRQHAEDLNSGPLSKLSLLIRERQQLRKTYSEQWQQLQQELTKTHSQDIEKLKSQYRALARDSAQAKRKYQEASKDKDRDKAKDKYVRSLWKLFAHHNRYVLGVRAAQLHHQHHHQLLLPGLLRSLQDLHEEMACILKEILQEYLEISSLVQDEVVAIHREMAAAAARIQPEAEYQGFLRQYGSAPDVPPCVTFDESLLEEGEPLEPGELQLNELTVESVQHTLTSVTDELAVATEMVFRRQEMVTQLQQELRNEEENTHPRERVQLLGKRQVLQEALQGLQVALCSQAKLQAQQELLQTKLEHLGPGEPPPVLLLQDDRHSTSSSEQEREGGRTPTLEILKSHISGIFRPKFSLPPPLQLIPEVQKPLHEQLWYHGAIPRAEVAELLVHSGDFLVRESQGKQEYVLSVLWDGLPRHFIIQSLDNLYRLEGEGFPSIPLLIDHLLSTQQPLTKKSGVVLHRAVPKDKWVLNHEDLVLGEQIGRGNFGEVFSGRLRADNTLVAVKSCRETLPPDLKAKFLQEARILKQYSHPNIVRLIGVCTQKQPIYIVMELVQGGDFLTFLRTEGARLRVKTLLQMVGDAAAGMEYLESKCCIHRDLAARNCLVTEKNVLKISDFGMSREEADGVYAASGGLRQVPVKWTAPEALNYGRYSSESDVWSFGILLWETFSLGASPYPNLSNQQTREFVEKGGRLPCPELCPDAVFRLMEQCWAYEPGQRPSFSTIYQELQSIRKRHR
row,Sequence,phosphorylation enrichment
1,APRKVYDTQDD [ZFPL1_Y215_R218Q],1.09
2,GCVRMYELVHR [GLE1_Y135],1.28
3,LSIQCYLRASD [HMGCS2_Y262_L266S],4.92
4,QPGTDYKIYLY [FN1_Y1970],1.55
5,DSNLIYSQIWS [FCRL3_Y662_P660L],12.2
6,AASTDYFKRGD [PDHA1_Y242_YF],0.663
7,KDFTKYVAYIE [KDM4B_Y31_N29T],1.07
8,TLQWMYGCDVG [HLA-B_Y123_S121W],1.34
9,SVVVPYKPPEV [TP53_Y220_E221K],0.792
10,CEAMEYQESKQ [BTK_Y511_L512Q],1.48
11,PFTRNYFVWAV [CYBA_Y87_R90W_YF],4.28
12,EFISEYCGEII [EZH2_Y641],1.33
13,EQAERYDDMAA [YWHAG_Y20],1.03
14,PSELFYSKISP [SMG1_Y2254_G2258S_YF],0.972
15,AGARMYGVLPW [PLP1_Y207_D203G],0.75
16,VVTGPYEKPSL [KIR3DS1_Y221_L220P],0.746
17,GDRPVYSEDEQ [CHST6_Y362_Y358D],1.57

row,Sequence,phosphorylation enrichment
1,SVVVPYEPSEV [TP53_Y220_P223S],1.23
2,IIWDSYTTNKV [GNB1_Y85],1.21
3,SSAKTYSRMRL [NBEAL2_Y1835_E1833K],0.552
4,LGPSDYFGETA [PRKAR1A_Y323_I327T],0.808
5,CTSIHYNYMCN [TP53_Y234_T231S],0.805
6,LAIERYVVVCK [RHO_Y136],2.33
7,NGVSYYINLCQ [IGF2R_Y2025],1.38
8,LWQTIYNLEAE [TNNT2_Y251_S249T],2.22
9,FPPTHYIRRMP [SLC4A11_Y820_V824M_YF],0.981
10,GYQPDYGQPAG [SYP_Y278],0.671
11,MCTVDYLLRLQ [RYR1_Y3921_I3916M],1.35
12,FGGLRYGFGVL [KRTAP20-2_Y13_YF],0.876
13,PGVDIYVSPNM [PADI3_Y51_I52V],1.71
14,CYVYYYSYLLK [PTEN_Y178_R173C],1.81
15,DLAAQYTTVGH [SGSH_Y240_R245H],0.947
16,KGSEGYLAATF [NF1_Y2503_YF],0.658
